T1: mRFP-SSM-‘RBD’5 (human, UniProt D2GVP7 455-564 (Ailuropoda melanoleuca entry), N-terminal mRFP fusion is not carried in the letters.)
T1 construct: Expressed in HEK293T cells; also called monomeric red fluorescence protein-SSM-‘RBD’5; product of pmRFP-hSTAU1-SSM-‘RBD’5; not shown: N-terminal mRFP (monomeric DsRed from a pDsRed-Express-C1 derivative) and the vector-encoded linker
T1 sequence: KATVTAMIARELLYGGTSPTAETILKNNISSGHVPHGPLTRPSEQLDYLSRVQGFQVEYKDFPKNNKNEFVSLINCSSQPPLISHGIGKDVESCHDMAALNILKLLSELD

T2: cellular hUPF1 (human, UniProt Q92900-2 1-1118, limits assumed)
T2 construct: Endogenous protein detected by western blotting
T2 sequence (looked up): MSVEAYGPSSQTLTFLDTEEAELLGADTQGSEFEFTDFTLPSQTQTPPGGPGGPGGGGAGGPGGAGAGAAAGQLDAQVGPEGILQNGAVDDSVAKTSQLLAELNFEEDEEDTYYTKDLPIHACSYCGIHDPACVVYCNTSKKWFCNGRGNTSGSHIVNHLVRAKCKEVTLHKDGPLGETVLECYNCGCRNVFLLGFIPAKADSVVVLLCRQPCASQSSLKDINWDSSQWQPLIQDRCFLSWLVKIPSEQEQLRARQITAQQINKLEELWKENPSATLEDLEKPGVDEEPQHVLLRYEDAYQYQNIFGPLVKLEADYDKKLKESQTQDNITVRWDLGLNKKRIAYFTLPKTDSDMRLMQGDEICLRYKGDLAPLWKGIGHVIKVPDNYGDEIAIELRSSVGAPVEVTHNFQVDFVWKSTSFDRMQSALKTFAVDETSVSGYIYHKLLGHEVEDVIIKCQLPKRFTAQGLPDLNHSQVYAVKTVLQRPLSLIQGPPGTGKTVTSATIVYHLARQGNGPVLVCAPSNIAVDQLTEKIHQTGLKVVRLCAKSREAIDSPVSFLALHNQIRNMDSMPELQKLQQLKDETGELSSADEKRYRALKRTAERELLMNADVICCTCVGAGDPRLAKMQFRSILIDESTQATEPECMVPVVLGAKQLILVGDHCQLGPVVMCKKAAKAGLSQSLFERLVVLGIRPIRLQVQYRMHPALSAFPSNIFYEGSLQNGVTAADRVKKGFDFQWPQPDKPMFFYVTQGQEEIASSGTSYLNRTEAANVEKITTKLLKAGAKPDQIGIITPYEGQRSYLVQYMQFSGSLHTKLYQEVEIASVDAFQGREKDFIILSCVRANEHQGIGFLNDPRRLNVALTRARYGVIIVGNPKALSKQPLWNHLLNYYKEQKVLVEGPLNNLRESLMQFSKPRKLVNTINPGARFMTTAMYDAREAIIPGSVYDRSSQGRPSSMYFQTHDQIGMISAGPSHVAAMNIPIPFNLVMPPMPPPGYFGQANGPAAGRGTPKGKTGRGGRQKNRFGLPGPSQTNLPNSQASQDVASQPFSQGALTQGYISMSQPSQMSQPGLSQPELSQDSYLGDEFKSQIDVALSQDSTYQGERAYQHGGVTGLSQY

T3: calnexin (UniProt P27824 21-592)
T3 construct: Specificity control
T3 sequence (looked up): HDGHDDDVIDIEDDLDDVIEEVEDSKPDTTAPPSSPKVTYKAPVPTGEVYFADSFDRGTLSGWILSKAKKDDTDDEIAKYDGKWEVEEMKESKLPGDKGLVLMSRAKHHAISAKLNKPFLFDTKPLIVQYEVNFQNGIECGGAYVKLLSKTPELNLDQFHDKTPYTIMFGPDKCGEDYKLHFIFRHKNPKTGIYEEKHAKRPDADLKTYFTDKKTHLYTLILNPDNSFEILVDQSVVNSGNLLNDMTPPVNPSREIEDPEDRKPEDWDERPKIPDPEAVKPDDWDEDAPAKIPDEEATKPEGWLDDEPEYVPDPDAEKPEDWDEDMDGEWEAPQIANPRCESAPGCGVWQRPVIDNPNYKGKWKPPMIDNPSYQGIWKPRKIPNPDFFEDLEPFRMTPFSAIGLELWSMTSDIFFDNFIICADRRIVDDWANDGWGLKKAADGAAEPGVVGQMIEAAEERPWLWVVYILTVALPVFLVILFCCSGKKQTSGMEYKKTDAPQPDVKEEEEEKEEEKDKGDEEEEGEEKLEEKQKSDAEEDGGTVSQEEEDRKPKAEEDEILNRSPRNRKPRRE

T4: mRFP-‘RBD’5 (human, UniProt O95793-2 407-476)
T4 construct: domain: ‘RBD’5; also called monomeric red fluorescence protein-‘RBD’5; product of pmRFP-hSTAU1-‘RBD’5; not shown: N-terminal mRFP (monomeric DsRed derived from pDsRed-Express-C1) with vector linker
T4 sequence (looked up): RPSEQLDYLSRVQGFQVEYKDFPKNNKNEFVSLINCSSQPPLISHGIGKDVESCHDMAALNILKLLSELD

B1: EGFP-SSM-‘RBD’5 (other, human, UniProt O95793-2 367-476, looked up)
chain: T1 sequence
notes: range 367-476; Expressed in HEK293T cells; tested in lysates with RNase A; also called monomeric enhanced green fluorescence protein-SSM-‘RBD’5; product of pEGFP-hSTAU1-SSM-‘RBD’5; not shown: N-terminal monomeric EGFP from pEGFP-C3 (BD Biosciences Clontech) with vector linker
B2: EGFP-‘RBD’5 (other, human, UniProt O95793-2 407-476, looked up)
chain: T4 sequence (looked up)
notes: domain: ‘RBD’5; also called monomeric enhanced green fluorescence protein-‘RBD’5; product of pEGFP-hSTAU1-‘RBD’5; not shown: N-terminal monomeric EGFP from pEGFP-C3 with vector linker

Legend:
[1] = molecular target: T1, mRFP-SSM-‘RBD’5; experiment: anti-GFP co-IP from HEK293T lysates with RNase A, western blotting
[2] = molecular target: T2, cellular hUPF1; experiment: co-immunoprecipitation with anti-GFP from HEK293T lysates in the presence of RNase A; western blot alpha-UPF1
[3] = molecular target: T3, calnexin; experiment: co-immunoprecipitation with anti-GFP from HEK293T lysates in the presence of RNase A; western blot alpha-Calnexin (control for IP specificity)
Source text: Western blotting (WB) using the specified antibody, where calnexinservesto control for IP specificity. Results are representative of three independently performed experiments.
Human embryonic kidney (HEK)293T cells were transiently transfected with a mixture of two plasmids: (i) pEGFP-‘RBD’5, which produces monomeric enhanced green fluorescence protein (EGFP)-‘RBD’5 and either pmRFP-SSM-‘RBD’5 or pmRFP-‘RBD’5, which produce monomeric red fluorescence protein (mRFP)—SSM-‘RBD’5 or mRFP-‘RBD’5, respectively; or (ii) pEGFP-SSM-‘RBD’5 and either pmRFP-SSM-‘RBD’5 or pmRFP-‘RBD’5 (FIG. 1D, upper). […] Cell lysates were immunoprecipitated in the presence of RNase A using anti-GFP or, to control for nonspecific immunoprecipitation (IP), mouse(m)IgG.

[4] = molecular target: T2, cellular hUPF1; experiment: anti-GFP co-IP from HEK293T lysates with RNase A, western blotting
[5] = molecular target: T4, mRFP-‘RBD’5; experiment: as above

| Binder | binding result [1] | binding result [2] | binding result [3] | binding result [4] | binding result [5] |
| --- | --- | --- | --- | --- | --- |
| B1 | binds | no binding | no binding |  |  |
| B2 |  |  | no binding | no binding | no binding |

Reference: patent publication US20130317087A1 (UNIVERSITY OF ROCHESTER, published 2013)
